The test addresses T1, Myc-DDK-tagged human CD2-associated protein (human, UniProt Q9Y5K6 1-639).
T1 construct: human CD2-associated protein (CD2AP), full-length protein; also called Myc-tagged CD2AP; Myc-CD2AP recombinant protein; source: bought: Origene Technologies (RC210191), recombinant protein
Description: peptide or protein array; PepStar microarray of 225 TKS4 15-mers (11 overlapping residues) on a glass slide, three subarrays; recombinant Myc-CD2AP incubated 1 h at 30 °C in SmartBlock solution, TBS washes, detected with Alexa Fluor 488 anti-Myc-tag antibody; threshold 10,000 U. The settings on record: both partners purified.

T1 sequence (Q9Y5K6 whole entry): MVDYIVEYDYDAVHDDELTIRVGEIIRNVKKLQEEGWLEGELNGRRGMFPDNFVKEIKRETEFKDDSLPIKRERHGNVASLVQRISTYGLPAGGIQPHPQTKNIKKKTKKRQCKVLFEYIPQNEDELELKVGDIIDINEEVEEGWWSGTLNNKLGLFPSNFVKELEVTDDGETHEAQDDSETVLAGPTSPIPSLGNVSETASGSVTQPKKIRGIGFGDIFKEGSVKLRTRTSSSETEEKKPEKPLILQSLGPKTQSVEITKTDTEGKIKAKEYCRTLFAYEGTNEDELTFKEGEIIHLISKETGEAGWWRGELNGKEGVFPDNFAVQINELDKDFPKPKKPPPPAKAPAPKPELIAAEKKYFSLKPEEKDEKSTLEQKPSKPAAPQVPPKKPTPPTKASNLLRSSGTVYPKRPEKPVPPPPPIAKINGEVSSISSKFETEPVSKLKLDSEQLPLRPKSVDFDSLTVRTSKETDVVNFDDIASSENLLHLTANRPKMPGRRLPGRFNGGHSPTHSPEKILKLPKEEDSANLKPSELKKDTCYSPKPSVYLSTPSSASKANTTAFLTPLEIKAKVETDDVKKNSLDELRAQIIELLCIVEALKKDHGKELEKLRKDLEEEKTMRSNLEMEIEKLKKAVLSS

B1: TKS4 peptide 189 (15-mer of the PepStar peptide microarray) (peptide, UniProt A1X283 753-767, looked up)
peptide: QRPVVPPRRPPPPKK
notes: contains the motif 755-PVVPPR-760; source: synthetic peptide printed on a glass slide; bought: JPT Peptide Technologies (PepStar microarray)
For B1, the binding result is “binds”.

B2: TKS4 peptide 188 (15-mer of the PepStar peptide microarray) (peptide, UniProt A1X283 749-763, looked up)
peptide: EAPQQRPVVPPRRPP
notes: as for B1
As to B2, the binding result is on record as “binds”.

The values are drawn from article PMC10606890, “Studying the Association of TKS4 and CD2AP Scaffold Proteins and Their Implications in the Partial Epithelial–Mesenchymal Transition (EMT) Process” (International Journal of Molecular Sciences, 2023).
